Test results taken from the supplement of paper PMC9112550, “Optimization of the antimicrobial peptide Bac7 by deep mutational scanning” (BMC Biology, 2022).

Test system: Escherichia coli TOP10
Test: shrunken log2 fold change of peptide-encoding DNA abundance (4.5 h post-induction vs induction); higher = less antimicrobial activity (less host growth inhibition)
Conditions: time post-induction: 4.5 h; library: site-saturation at positions 5, 18, 19, 20
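Note: peptides expressed intracellularly from a pBAD plasmid library in pooled LB shake-flask culture, induced with 0.3% L-arabinose, DNA abundance read by NGS, three biological replicates, DESeq2 with apeglm shrinkage.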

In order of falling “shrunken log2 fold change” value:
1. RRIRRRPPRLPRPRPRPLFTPRP  1.61
2. RRIRLRPPRLPRPRPRPVRFPRP  1.26
3. RRIRKRPPRLPRPRPRPKVAPRP  1.23
4. RRIRWRPPRLPRPRPRPESTPRP  1.17
5. RRIRGRPPRLPRPRPRPPWRPRP  1.07
6. RRIRDRPPRLPRPRPRPMRGPRP  0.937
7. RRIRARPPRLPRPRPRPPRHPRP  0.937
8. RRIRGRPPRLPRPRPRPGCTPRP  0.885
9. RRIRKRPPRLPRPRPRPTAAPRP  0.757
10. RRIRGRPPRLPRPRPRPTSKPRP  0.69
11. RRIRGRPPRLPRPRPRPRTHPRP  0.666
12. RRIRGRPPRLPRPRPRPKDTPRP  0.61
13. RRIRRRPPRLPRPRPRPGPWPRP  0.523
14. RRIRVRPPRLPRPRPRPPAGPRP  0.522
15. RRIRMRPPRLPRPRPRPMRTPRP  0.502
16. RRIRGRPPRLPRPRPRPYAMPRP  0.451
17. RRIRCRPPRLPRPRPRPSVMPRP  0.445
18. RRIRQRPPRLPRPRPRPVGEPRP  0.443
19. RRIRARPPRLPRPRPRPTNAPRP  0.434
20. RRIRMRPPRLPRPRPRPTHLPRP  0.396
21. RRIRGRPPRLPRPRPRPGKGPRP  0.394
22. RRIRKRPPRLPRPRPRPRDCPRP  0.306
23. RRIRARPPRLPRPRPRPDFLPRP  0.257
24. RRIRKRPPRLPRPRPRPVIGPRP  0.233
25. RRIRSRPPRLPRPRPRPAVCPRP  0.185
26. RRIRWRPPRLPRPRPRPGKIPRP  0.159
27. RRIRWRPPRLPRPRPRPPNRPRP  0.148
28. RRIRLRPPRLPRPRPRPQDIPRP  0.133
29. RRIRNRPPRLPRPRPRPYPMPRP  0.133
30. RRIRVRPPRLPRPRPRPAVRPRP  0.123
31. RRIRDRPPRLPRPRPRPFFHPRP  0.119
32. RRIRCRPPRLPRPRPRPCGGPRP  0.113
33. RRIRARPPRLPRPRPRPAYPPRP  0.106
34. RRIRSRPPRLPRPRPRPNVLPRP  0.105
35. RRIRRRPPRLPRPRPRPNVTPRP  0.0871
36. RRIRPRPPRLPRPRPRPYGEPRP  0.0864
37. RRIRWRPPRLPRPRPRPHGVPRP  0.0746
38. RRIRGRPPRLPRPRPRPWMSPRP  0.0647
39. RRIRDRPPRLPRPRPRPDVDPRP  0.0482
40. RRIRFRPPRLPRPRPRPAFCPRP  0.0477
41. RRIRLRPPRLPRPRPRPAASPRP  0.0421
42. RRIRRRPPRLPRPRPRPEVDPRP  0.0409
43. RRIRMRPPRLPRPRPRPDQIPRP  0.0408
44. RRIRTRPPRLPRPRPRPIGMPRP  0.0258
45. RRIRHRPPRLPRPRPRPWSRPRP  0.0245
46. RRIRIRPPRLPRPRPRPDKGPRP  0.0101
47. RRIRVRPPRLPRPRPRPMMGPRP  0.00748
48. RRIRSRPPRLPRPRPRPTDRPRP  0.000994
49. RRIRMRPPRLPRPRPRPWHIPRP  -0.0015
50. RRIRLRPPRLPRPRPRPQLRPRP  -0.00627
51. RRIRLRPPRLPRPRPRPCKHPRP  -0.0106
52. RRIRGRPPRLPRPRPRPIRLPRP  -0.0112
53. RRIRYRPPRLPRPRPRPHRLPRP  -0.0157
54. RRIRVRPPRLPRPRPRPVEVPRP  -0.0382
55. RRIRCRPPRLPRPRPRPYQTPRP  -0.0384
56. RRIRTRPPRLPRPRPRPWVAPRP  -0.0456
57. RRIRGRPPRLPRPRPRPFWCPRP  -0.0505
58. RRIRDRPPRLPRPRPRPLSPPRP  -0.0511
59. RRIRVRPPRLPRPRPRPCEVPRP  -0.0542
60. RRIRLRPPRLPRPRPRPRHRPRP  -0.0544
61. RRIRKRPPRLPRPRPRPFKFPRP  -0.0557
62. RRIRVRPPRLPRPRPRPIYWPRP  -0.0757
63. RRIRNRPPRLPRPRPRPWRCPRP  -0.0792
64. RRIRMRPPRLPRPRPRPTYPPRP  -0.0846
65. RRIRIRPPRLPRPRPRPKKCPRP  -0.0871
66. RRIRCRPPRLPRPRPRPNGFPRP  -0.0899
67. RRIRLRPPRLPRPRPRPCEMPRP  -0.0934
68. RRIRYRPPRLPRPRPRPLDAPRP  -0.0975
69. RRIRCRPPRLPRPRPRPYEGPRP  -0.103
70. RRIRSRPPRLPRPRPRPGSHPRP  -0.104
71. RRIRWRPPRLPRPRPRPGNMPRP  -0.11
72. RRIRFRPPRLPRPRPRPVAHPRP  -0.113
73. RRIRSRPPRLPRPRPRPDGVPRP  -0.115
74. RRIRWRPPRLPRPRPRPCQHPRP  -0.116
75. RRIRPRPPRLPRPRPRPWLSPRP  -0.119
76. RRIRMRPPRLPRPRPRPYCWPRP  -0.134
77. RRIRTRPPRLPRPRPRPQDSPRP  -0.153
78. RRIRQRPPRLPRPRPRPTNFPRP  -0.159
79. RRIRARPPRLPRPRPRPIETPRP  -0.18
80. RRIRFRPPRLPRPRPRPQDNPRP  -0.186
81. RRIRLRPPRLPRPRPRPKCPPRP  -0.193
82. RRIRMRPPRLPRPRPRPMNIPRP  -0.198
83. RRIRSRPPRLPRPRPRPYHQPRP  -0.203
84. RRIRYRPPRLPRPRPRPGDPPRP  -0.223
85. RRIRVRPPRLPRPRPRPDPLPRP  -0.231
86. RRIRTRPPRLPRPRPRPMHCPRP  -0.235
87. RRIRHRPPRLPRPRPRPQGLPRP  -0.247
88. RRIRNRPPRLPRPRPRPHCKPRP  -0.249
89. RRIRHRPPRLPRPRPRPCAKPRP  -0.251
90. RRIRVRPPRLPRPRPRPRSDPRP  -0.258
91. RRIRYRPPRLPRPRPRPQHLPRP  -0.262
92. RRIRSRPPRLPRPRPRPLECPRP  -0.267
93. RRIRQRPPRLPRPRPRPPFCPRP  -0.284
94. RRIRIRPPRLPRPRPRPNRLPRP  -0.286
95. RRIRYRPPRLPRPRPRPDLIPRP  -0.302
96. RRIRLRPPRLPRPRPRPFLHPRP  -0.306
97. RRIRWRPPRLPRPRPRPCALPRP  -0.321
98. RRIRMRPPRLPRPRPRPHQYPRP  -0.41
99. RRIRVRPPRLPRPRPRPLYGPRP  -0.426
100. RRIRVRPPRLPRPRPRPCNDPRP  -0.437
101. RRIRIRPPRLPRPRPRPQQDPRP  -0.442
102. RRIRSRPPRLPRPRPRPTYSPRP  -0.453
103. RRIRHRPPRLPRPRPRPYVFPRP  -0.508
104. RRIRERPPRLPRPRPRPHTLPRP  -0.571
105. RRIRWRPPRLPRPRPRPYTIPRP  -0.606
106. RRIRSRPPRLPRPRPRPYSKPRP  -0.994
107. RRIRYRPPRLPRPRPRPCFPPRP  -1.06
108. RRIRCRPPRLPRPRPRPIYMPRP  -1.29
109. RRIRYRPPRLPRPRPRPCIIPRP  -1.51
